For 6 molecules, Kd results are on record in patent US20200206312A1.

Values joined by “and” are separate entries in the source; they are usually repeats but may differ in a detail not shown here. Equal values may be shown once. Read-outs that look alike come from different tables or passages of the source. Bridge positions count the residues as written; N and C are the ends. Ends that are not written are not given here. * marks the point of attachment. Biotin = O=C1N[C@H]2[C@H](CS[C@H]2CCCCC(=O)*)N1; Capped = not defined here

In assay [1] the target is T1, Recombinant human NRP1 with His Tag (Sino Biological Inc.; Cat #1001-H08H) (human), O14786.
Assay [2] addresses T1, Recombinant human NRP1 with His Tag …. This is another data set of the same source.
Assay [3] shares this target. The source holds these as a separate data set.
For assay [4] the target is unchanged. The experiment in a line: BLI (Octet Red96), biotinylated peptide on streptavidin sensor, NRP1 in solution. For orientation: BLI is a label-free optical method that tracks binding on a fibre tip over time.

T1 sequence (O14786 other isoform, or with tags, fused parts or gaps H08H H08H limits assumed): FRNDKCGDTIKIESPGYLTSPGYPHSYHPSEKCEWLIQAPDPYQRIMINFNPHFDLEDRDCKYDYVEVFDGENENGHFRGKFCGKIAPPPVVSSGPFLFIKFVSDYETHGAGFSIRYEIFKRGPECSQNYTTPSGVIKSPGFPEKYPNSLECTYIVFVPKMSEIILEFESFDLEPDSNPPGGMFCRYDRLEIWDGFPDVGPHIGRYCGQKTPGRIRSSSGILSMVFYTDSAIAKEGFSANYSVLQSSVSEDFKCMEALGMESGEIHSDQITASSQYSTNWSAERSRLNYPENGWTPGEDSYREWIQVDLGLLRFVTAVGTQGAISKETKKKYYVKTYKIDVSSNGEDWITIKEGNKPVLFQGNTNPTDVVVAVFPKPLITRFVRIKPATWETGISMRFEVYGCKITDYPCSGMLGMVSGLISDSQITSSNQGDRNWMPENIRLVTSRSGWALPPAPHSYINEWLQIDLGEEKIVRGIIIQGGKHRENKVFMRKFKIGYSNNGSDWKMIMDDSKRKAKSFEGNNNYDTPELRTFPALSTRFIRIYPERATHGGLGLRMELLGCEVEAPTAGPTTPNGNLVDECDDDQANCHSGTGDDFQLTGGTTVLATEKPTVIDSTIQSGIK

B1: NH2(Biotin)-C-Y-G-P-Q-C-L-C(Capped)-R-COOH with S-S between the first two C (peptide)
peptide: Biotin-CYGPQCLC(Capped)R-OH
modifications: disulfide 1-6; reading uncertain
With B1, in assay [1], the dissociation constant Kd worked out at 410 nM.

B2: NH2(Biotin)-Y-G-P-Q-C(Capped)-L-C(Capped)-R-COOH (peptide)
peptide: Biotin-YGPQC(Capped)LC(Capped)R-OH
modifications: reading uncertain; also: printed as NH2(Biotin)-Y-G-P-Q-C(Capped)-L-C(Capped)-R-COOH
On to B2, for which the dissociation constant Kd in assay [1] is 300 nM and 294 nM.

B3: tri-peptide 1/2/3 from trypsin digestion of N-terminal biotinylated TM601 (UM-1438-127-1) (peptide)
chain 1: MCMPCFTTDHQMAR
chain 2: CYGPQCLCR
chain 3: KCDDCCGGK
modifications: not fully specified (N-terminus); cysteine pairing not given here
B3: in assay [2], the Kd was 173 nM and 70 nM.

B4: NH2(Biotin)-C(Capped)-Y-G-P-Q-C(Capped)-L-C(Capped)-R-COOH (peptide)
peptide: Biotin-C(Capped)YGPQC(Capped)LC(Capped)R-OH
modifications: reading uncertain; also: printed as NH2(Biotin)-C(Capped)-Y-G-P-Q-C(Capped)-L-C(Capped)-R-COOH
For B4, the dissociation constant (Kd) in assay [3] was 153 nM and 335 nM.

B5: NH2(Biotin)-C(Capped)-L-C(Capped)-R-COOH (peptide)
peptide: Biotin-C(Capped)LC(Capped)R-OH
modifications: reading uncertain; also: printed as NH2(Biotin)-C(Capped)-L-C(Capped)-R-COOH
Regarding B5, the dissociation constant Kd in assay [4] was found to be 335 nM.

B6: tri-peptide 1/2/3 from trypsin digestion of Lys-27 biotinylated TM601 (UM-1438-118) (peptide)
chain 1: MCMPCFTTDHQMAR
chain 2: GKCYGPQCLCR
chain 3: KCDDCCGGK
modifications: not fully specified; modifications not checked
For B6, the Kd in assay [2] was 112 nM and 187 nM.

As a reminder, the Kd is the equilibrium constant for the complex coming apart.
